Reference: the supplement of paper PMC10567573

B1: FOXJ1 (parent)
chain: SAIYKWITDNFCYFRHADPTWQNS
B2: ADD1 (parent)
chain: FASDGDSGTCSPLRHSFQKQQREK

Variants of: B1
Assay: protein stability index of a GFP-peptide fusion (GPS, HEK-293T) (PSI 1-6); higher = more stable
Conditions: c terminus: a fixed tail appended
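Also: lentivirally expressed fusions sorted by FACS into six bins by GFP to DsRed ratio, PSI derived from sequencing read proportions per bin multiplied by bin number.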

Protein stability index of substitutions, site by site:
S24: M 2.55; F 3.32; D 4.48; H 2.34; N 3.76; R 2.43; W 2.37; T 2.96; P 3.85
P19: M 4.18; T 4.32; S 2.63; R 3.65; V 3.02; A 3.17; I 3.63; N 2.77; W 2.35; D 1.69; G 2.04
W21: S 1.61; F 1.85; I 3.5; N 3.38; P 1.99; K 3.58; G 2.24; Q 2.9; R 2.27; H 2.11; E 3.54; D 2.94; M 3.42; V 3.94
D9: A 2.74; M 3.64; L 2.65; Q 2.67; C 4.21; P 2.83; H 4.47; E 3.89
C12: W 3.99; V 2.69; P 1.97; H 3.13; K 2.81; F 2.67; D 1.59; A 2.57; G 2.61; E 1.95; R 1.81; Q 1.81
T8: C 2.73; N 3.01; P 1.86; Q 2.78; E 2.79; I 1.8; F 3.33; S 4.33; V 2.13; A 3.42
N10: D 1.58; C 2.08; W 2.06; T 2.05; M 2.89; R 2.2; G 1.42; Y 3.33; P 2.13; L 3.56
F14: H 2.56; E 2.23; P 2.04; M 2.21; W 2.73; Y 2.97; N 2.14; V 3.33; C 3.92
I3: P 2.06; K 1.84; L 2.36; D 2.83; V 3.81; F 1.87; Q 2.1; H 1.98; C 4.05; T 1.7; S 1.21
Q22: F 3.37; S 4.33; M 3.06; E 2.19; W 1.86; G 2.93; H 3.75; N 4.82; D 2.56
Y4: P 2.27; D 2.24; N 2.71; T 1.52; E 2.99; Q 2.97; A 1.47; C 2.04; F 2.59; W 2.97; H 2.58
Y13: L 1.87; V 3; D 1.8; M 2.87; H 3.23; S 2.2; F 2.47; P 2.18; A 3.53; T 2.96; E 1.03; K 1.86
F11: Q 2.21; Y 3.4; K 2.08; D 1.49; N 2.05; C 2.68; E 1.89; V 3.51; W 2.53; S 3.59; R 3.03
I7: T 1.66; S 2.81; P 2.1; Q 1.36; H 1.6; V 2.81; G 2.4; R 1.79; C 1.84; F 2.87; D 2.27; L 2.9; W 3.71; E 2.3; Y 1.86
R15: H 5.96; Y 2.33; T 1.69; P 2.53; E 4.29; L 2.95; G 3.31; A 1.81; C 3.16; S 2.76; I 2.32
W6: R 1.86; Q 2.07; P 2.13; I 3.22; K 1.22; G 1.67; T 1.43; V 1.49; S 1.71
N23: A 2.99; H 4.01; S 2.62; V 2.39; D 3.65; E 3.59; C 2.97; W 3.47
H16: F 3.57; P 3.62; D 2.33; S 3.5; I 1.75; Q 3.32; G 2.72; W 1.82
S1: D 3.17; Y 2.05; C 3.86; V 2.43; T 3.01; E 3.4; H 2.92; A 3.31; I 4.71; G 3.32; N 2.5; Q 2.31
A17: H 3.05; M 4.41; R 3.34; C 3.02; S 2.61; Y 2.86; K 2.1; T 2.16
K5: C 2.24; T 2.46; R 3.05; V 3.36; P 1.26; H 3.79; G 3.71; D 3.42; Y 3.64; E 1.81; W 2.78; M 3
T20: D 2.67; I 2.42; C 3; W 4.37; S 3.35; Y 2.55
D18: V 2.75; Y 2.95; H 4.66; S 3.4; N 3.12; E 3.65; G 2.24; F 1.9; L 2.74; Q 2.86; M 3.77
A2: L 2.45; V 2.4; N 2.25; E 1.44; Q 2.49; Y 2.04; K 2.72; H 3.1; G 2.87; F 4.1; C 3.04; P 3.53; W 2.53; R 2.52

Variants of: B2
Assay: as above
Conditions: c terminus: a fixed tail appended

Protein stability index, by site and new letter:
A2: R 4.38; T 4.39; L 3.7; I 2.84; F 4.6; D 5.17; M 3.86; Y 4.33; P 4.27; C 3.54; K 4.66; E 5.18; Q 3.61; N 4.79; V 3.07; H 2.76; W 4.27; G 4.11; S 4.47
F1: G 4.99; H 5.18; R 5.07; K 4.22; C 4.17; P 5.76; M 5.2; E 5.62; Y 4.07; T 5.55; W 5.13; D 4.91; N 5.19; S 5.12; I 5.29; Q 4.57
S3: G 3.98; C 3.02; R 3.25; T 3.99; A 3.58; N 3.72; H 4.05; D 4.03; M 4.33; K 3.75; V 4.09; Q 4.5; W 2.72; P 2.37; I 3.88; Y 1.93; F 1.92; L 3.51
G5: M 3.62; E 4.74; F 4.01; A 4.17; Q 4.66; P 3.67; C 3.57; I 3.68; K 3.76; L 3.83; D 4.29; H 3.43; N 4.29
D4: T 2.69; N 2.99; P 4.26; V 2.44; R 2.81; Y 2.66; C 2.72; Q 3.14; E 4.37; G 2.07; H 3.08; A 2.14; L 3.48; I 2.54; F 2.41; M 2.54; K 2.51
